# B1: Hairpin Ribozyme (parent)
# chain: GUCCUCUUUCACGUGCGCGUGAAAGAGAGAAGUGAACCAGAGAAACACACGUUGUGGUAUAUUACCUGGUA
# Variants of: B1
# Test: self-cleavage, relative activity (ratio to wild type); higher = more cleavage; co-transcriptional
row,Variant,self-cleavage
1,G15A G69C,0.31
2,G15A A26G,0.835
3,G15A A26U,0.638
4,C16A U33C,0.2
5,G15U U55G,0.302
6,G15U U55C,0.306
7,C16A A59C,0.213
8,G15C A30C,0.377
9,G15C A30G,0.198
10,U14G C37U,0.547
11,G15A A59G,0.111
12,G15A G34C,1.23
13,G15A A44G,0.139
14,U14C C65A,0.93
15,U14C C65G,0.214
16,U14C A22U,1.06
17,G15U A24U,0.957
18,G15A U58C,1.03
19,U14G U20G,0.736
20,U14C C48G,0.26
21,G15A A43C,0.162
22,G15A U67G,0.234
23,G15A U67C,0.24
24,G15C G68U,0.235

row,Variant,self-cleavage
1,G15C A24C,1.15
2,G15C A24G,0.892
3,U14G G42U,0.163
4,G15U G17U,1.06
5,G15A G56A,0.135
6,G15A G56C,0.172
7,G15C C66U,0.555
8,G15C A26U,0.777
9,U14G G68C,0.0739
10,G15U A39U,0.544
11,G15U A35G,0.933
12,G15U A35C,1.16
13,U14C G27U,0.102
14,U14C G17A,0.861
15,U14C G17U,1.24
16,G15A A49C,0.0193
17,U14C C66U,0.408
18,U14C C66G,0.337
19,G15C U67C,0.2
20,G15C U67A,0.112
21,G15U A31C,0.118
22,U14G A49G,0.386
23,C16A C38U,0.577
24,G15C A43C,0.225

row,Variant,self-cleavage
1,G15A G27U,0.373
2,G15U U33A,0.248
3,G15U U33G,0.18
4,U14C A39G,0.243
5,U14C A39C,0.475
6,U14C A49C,0.162
7,U14C A49U,0.134
8,U14C C46A,0.174
9,U14C C46U,0.078
10,U14C C46G,0.0498
11,G15U G19A,0.968
12,U14G G15U,0.796
13,U14C A47U,0.112
14,U14C A47C,0.484
15,C16A A45U,0.176
16,G15A G51A,1.21
17,G15U U62A,0.2
18,G15U U62C,0.461
19,G15U U62G,0.189
20,G15A A41C,1.08
21,G15C C46G,0.0585
22,G15U C18A,1.07
23,G15U C18U,1.03
24,G15A C16G,1.04

row,Variant,self-cleavage
1,G15A C16A,0.881
2,G15C A71G,0.98
3,G15A C48A,0.133
4,G15A C48U,0.0998
5,G15A G29A,0.118
6,C16A A23U,0.727
7,G15A A71U,0.785
8,U14G C48U,0.0482
9,U14C G69U,0.3
10,G15U A36G,1.25
11,G15U A59C,0.11
12,G15C G29A,0.148
13,G15U G25C,0.705
14,G15C A49C,0.101
15,G15C A49U,0.102
16,G15C A49G,0.523
17,U14G U58C,0.881
18,G15U G54C,0.385
19,G15C G34U,0.975
20,G15A U60G,0.639
21,U14C A23G,0.841
22,G15U C46G,0.167
23,G15U A44C,0.145
24,C16A C65G,0.255

row,Variant,self-cleavage
1,C16A C65A,0.845
2,U14C U58A,0.763
3,U14C U58C,0.78
4,G15A A47G,0.124
5,G15A A47U,0.17
6,C16A A31U,0.0142
7,G15C G17C,0.668
8,G15C G17A,1.03
9,U14C C38A,0.0751
10,U14C U55G,0.352
11,U14C U55A,0.271
12,U14C U55C,0.483
13,G15C G54A,0.532
14,G15C G54C,0.404
15,C16A U67A,0.246
16,C16A U67C,0.24
17,U14G A43C,0.0921
18,G15A G19C,0.856
19,G15A G19A,0.898
20,G15A G19U,0.942
21,U14C A71U,0.87
22,C16A A22G,0.617
23,U14G U53G,0.287
24,C16A A64U,0.14

row,Variant,self-cleavage
1,U14C A31C,0.0434
2,U14C A31U,0.0592
3,G15A C38U,0.44
4,G15C G21U,1.06
5,G15C G21C,0.897
6,U14C U63C,0.392
7,U14C U63A,0
8,G15U U70C,0.999
9,U14C U33A,0.0608
10,G15C U60C,1.25
11,C16A G19C,0.736
12,G15U A22U,0.996
13,G15A U70A,0.689
14,G15A U70G,0.838
15,C16A A41G,0.818
16,C16A A41U,1.3
17,G15U U20G,0.853
18,G15U U20A,0.941
19,U14C G57U,0.265
20,G15A G21U,0.841
21,U14C C50G,0.268
22,U14C A28C,0.565
23,U14C A35U,0.713
24,U14C A35G,0.953

row,Variant,self-cleavage
1,U14C U70A,0.814
2,C16A G57C,0.127
3,G15C G51A,0.796
4,G15C G51C,1.23
5,U14G G69U,0.2
6,U14C G68C,0.212
7,G15U A28C,0.619
8,G15U A28G,1.16
9,G15U C38U,0.662
10,G15U C38A,0.124
11,G15A A22G,1.11
12,G15A A22U,0.699
13,G15A A22C,0.821
14,G15U G56C,0.195
15,G15A A61C,0.161
16,G15A A61U,0.283
17,U14G G57A,0.146
18,G15C A36U,0.505
19,G15A C50A,0.28
20,G15A C50G,0.219
21,G15A C50U,0.356
22,G15C A47G,0.108
23,G15A C66G,0.0886
